Assay results: patent US20240026407A1, “MODIFICATION OF SAPONINS” (GLAXOSMITHKLINE BIOLOGICALS SA, priority 2020, published 2024)

Experiments:
Assay type in all cases: biochemical, Quillaja saponaria
[1] = Experiment 4-4: screening of glucosidases for deglycosylation of QS-18 in crude bark extract (1 in 20 dilution) to QS-21; conditions: CBE 1 in 20 dilution, pH 6, 25 degC, 18 hours; % conversion of Middle Peak by UV HPLC
Experimental: Lysates were prepared as in Experiment 4-2.
Crude bark extract (CBE) was adjusted to pH 6 by dropwise addition of 2M NaOH with stirring. 25 uL of clarified lysate was transferred to a reaction plate, 22.5 ul of 100 mM potassium phosphate buffer pH 6 was added, 2.5 ul CBE at pH 6 was added. Reaction plates were sealed, incubated at 25 degC with shaking for 18 hours, then quenched by addition of 50 uL acetonitrile (MeCN). Quenched reaction plates were re-sealed and incubated at 20 degC with shaking for 10 min. The reaction plates were centrifuged (10 min, 4 degC) and analysed by UV HPLC with the method below:
Three key peaks of interest are apparent using this chromatography: Left Peak (retention time approximately 2.30-2.35 min) comprising mainly QS-17 family components; Middle Peak (retention time approximately 2.37-2.42 min) comprising mainly QS-18 family components and desglucosyl-QS-17 family components; and Right Peak (retention time approximately 2.44-2.50 min) comprising mainly QS-21 family components. Peak identity was supported by MS/MS.
Enzyme activity is calculated as the % conversion of the Middle Peak present in the crude bark extract: […]

[2] = Experiment 4-1: screening of glucosidases for deglycosylation with purified QS-18 (0.04 mg/ml) at pH 7.5 and room temperature; conditions: pH 7.5, room temperature, 20 h, clarified E. coli lysate, QS-18 2150 to QS-21 1988 by LCMS/MS
Experimental: Nucleotide sequences were sub-cloned into pET24b+ for expression. 10 uL of E. coli cells (One Shot® BL21(DE3) chemically competent E. coli) were transferred to each well of a 96 well PCR plate (prechilled on ice). 10 uL autoclaved water was added to the DNA, resuspended by pipetting, and 1 uL of plasmid DNA (15-30 ng) was transferred to the competent cells. Immediately after addition, the resulting mixture was mixed by pipetting. Cells were heat shocked by placing the plate in a thermal cycler at 42° C. for 30 seconds then transferred directly to an ice bath for 2 min. 100 uL sterile Lysogeny Broth (LB) medium was added to each well containing transformed cells. The content of each plate was transferred into a 96-deep well plate pre-aliquoted with 400 uL LB and the plate was incubated at 37° C. with shaking and 85% humidity for 1 hour. After outgrowth, 500 uL of sterile LB containing 100 ug/mL kanamycin was added to the plates containing cells and plates incubated at 37° C. with shaking overnight (18 hours) with humidity control (85%).
1000 mLs of Overnight Express Media was supplemented with 1 mL kanamycin 50 mg/mL and 20 mL of 50% v/v glycerol added (50 ug/mL kanamycin final and 1% glycerol). 96-Well Assay Block 2 mL plates were aliquoted with 380 uL of media per well. Pre-inoculum (20 uL) from transformation plates was added. The plates were sealed appropriately and incubated at 37° C. at 300 with shaking for 2 h. After 2 h the temperature was lowered to 20° C. and incubation continued for 20 h.
The liquid cultures were centrifuged for 10 minutes at 4° C. The supernatant was discarded, plates blotted on an absorbent material to remove residue and the plates frozen at −80° C.
Lysis buffer was prepared according to the following protocol: • 1. Polymyxin B sulphate (0.5 mg/mL) was suspended in 100 mM potassium phosphate pH 7.5 • 2. The mixture was sonicated until polymyxin B sulphate had dissolved • 3. Lysozyme (1 mg/mL) and benzonase (0.1 uL/mL lysis buffer) were added
2 copies of each cell pellet plate were removed from −80 degC freezer and allowed to thaw. 200 uL of lysis buffer was added to each well of one copy of the cell pellet plates. Plates were shaken at room temperature for 10 mins. 190 uL of cell pellet/lysis buffer was transferred to a corresponding fresh cell pellet plate. These plates were incubated at room temperature with shaking for 2 hours. Lysate was clarified by centrifugation (10 min, 4 degC).
QS-18 was obtained by analogous methods to Example 3, collecting a QS-18 containing phenyl fraction following phenyl treatment (presence of m/z corresponding to key components was confirmed by MS and the phenyl fraction then used without further treatment). QS-18 solution was prepared by diluting aqueous QS-18 (ca 1 mg/mL) with 100 mM potassium phosphate pH 7.5 to 0.2 mg/ml. 40 uL clarified lysate was transferred into fresh 96 well PCR plates. 10 uL QS-18 solution added to each well of lysate to a final concentration of 0.04 mg/ml. Incubated at room temperature with shaking for 20 h. Quenched with 50 uL MeCN and shaken at room temperature for 10 mins. Samples were analysed by LC-MS/MS using a Waters Acquity H class coupled to a Waters Xevo Tandem Quadrupole (TQD) Mass Spectrometer.
Enzyme activity was calculated as: […]
Candidate enzymes with % conversion >0.72%, i.e. >3 S.D. above negative control, were considered to be positive hits and are listed below in Table 7. Sample results are shown in FIG. 10 for a QS-21 standard, FIG. 11 for negative control and FIG. 12 for treatment with the glucosidase of SEQ ID No. 262.

[3] = Experiment 4-2: screening of glucosidases for deglycosylation with purified QS-18 (1 mg/ml) at pH 6 and 30 deg C; conditions: pH 6, 30 degC, 18 hrs, clarified lysate, LCMS/MS
Experimental: Lysates were prepared in an identical manner to Experiment 4-1 above, except the lysis buffer was prepared in 100 mM potassium phosphate buffer pH 6. QS-18 solution was prepared by dissolving QS-18 in 100 mM potassium phosphate buffer pH 6 (2 mg/mL).
12 uL clarified lysate was transferred into fresh 96 well PCR plates. 12 uL QS-18 solution was added (1 mg/ml final concentration), plates sealed and incubated overnight (30° C.) for 18 hrs. After quenching with 25 uL MeCN and shaking for 10 mins (RT), samples were analysed using the LC-MS/MS protocol described in Experiment 4-1 and enzyme activity determined in an analogous manner.

B1: 302 (protein, listed as Rhodococcus sp.)
chain: MTTRPDLTLEQQAALLSGHDFWSTEAIEEAGIPSVVLTDGPHGVRYQSGDSDHLGLHASLPATCFPLAVAVGSSWDRSVAEEVGRAVGREARALGVHVVLGPGVNIKRSPLCGRNFEYYSEDPLLSGVLGAAHVRGLQSVGVGACVKHFAANNQETDRMRVSADVDDRTLREIYLPAFERVVAEARPAAVMCSYNKVNGVSAAENRWLLTEVLREQWGFAGVVVSDWGAVADRVAGVTAGLDLEMPGSGGGTDRQVVDAVRDGRLDPRLVEASAHRVLALSDLVRPAAGDLDLDGQHALARRLAADCAVLLKNADGVLPLRRGQHVAVLGSFATTPRFQGGGSSHIAPTRVDPALDAVRALAAAHGLTVSAADGFPLGADGDARALLDEAVRVAAAADVAVVFAGLTEREESEGFDRDTLDLPPVQVALVRAVARAAPRTVVVLAHGGVVSLEGWHDEVDAILDGWLLGQAGGSAIADLLLGVATPSGHLAETVPLRLEDTPSYLNFPGEQGHVRYGEGVMVGYRGYETLRRAVRYPFGHGLSYTTFVTESLDVALGGDGTVAVRVRVRNAGDRAGKHVVQMYVATDAGPVRRPVRELRAFEKIELAPGEARDVELTLERRAFAYWDVELDDWVVAPGEYAIQVCADAATVLEARTVTLAGDVVSRPLSMESTVGEWFSHPTVGPAFLEVLAGATGSAPTPDPQEHAGLLRMVESIRMAQFLTFLPIPVPQEKLDELLALGGTVANSATDAAAGNRDHPAPTPPGQPGGP
Question: Which results are given for B1?
Answer: Expt 4-4 % conv [1]: <3%; Expt 4-1 % conv [2]: 17.2%; Expt 4-2 % conv [3]: 2.1%

B2: 4 (protein, listed as Microbacterium azadirachtae)
chain: MTLPPFDVDTVLAALTLEEKASLLSGLDDWYTQPLDRPGLPQRVPSIEVGDGPHGLRKETGVDMVWVPATGFPTASAMGASWDRQLMRRVAAAIGEEARAEGVQVVLGPGVNMKRSPLCGRNFEYFSEDPVHSGELGAAYVDGVQAVGVGTSLKHFAANNQEIERTRISVVADERTLRETYLSAFERVVTKADPWTVMCSYNRLLGVHASQNHWLLTEVLRDEWGYRGAVVSDWNAVHDRVAALRAGLDLEMPGTQGATDAEIVAAVQDGQLDIGVVDAAARRVLELVARAYPGADRVNGAVMDLGHAAGDRLTAEQLRLLRAAEHHELAREAAIGSMTLLRNETIPGGGGPALPLEEHSEGAVAVVGAFAEHARVQGGGSSGVDPTRIDAPLAAIRAIANGRVHYAPGYIYEVKNAYQDDNLAILAAHGVVTEEEKPRVARRSATLAKELQLAEAVQHLGKRPLSAAAERLIDEAAVIAGQAETIVVFAGLPLSYEQEANDRDTLALPADQVALILRMADVREKTGARLVVVLSNGSPVTMDPWHDRVDAIVEAWLGGQAVGSAVAEVLFGRSNPSGKLAETFPLALEDTPGFPNWLGERGTVLYGEGVFIGYRWYDALRREVRYPFGHGLSYTTFSYSDLRVDLVDAEVGRVTVTCTVTNTGDVAGQEVVQLYVGDPDAEVQRPLRELRGFEKVKIEAGESTRVRFELLNRDFAYWDSAAVRPDGKTGLWRREGGEFRIEVGASSRDIRLSESIVLSDDPSIPPLVPDAELLDIAASRFVQGHAG
Question: Which results are given for B2?
Answer: Expt 4-1 % conv [2]: 0.4%; Expt 4-2 % conv [3]: 0.6%
